This note sets out measurements from PMC4596520.

Common to all, as to experiment: SPR
Details in all cases: read off a plot

Assay [1] has as its target hexa-His-tagged recombinant soluble human Fcγ receptor I (UniProt P12314).
Assay [2] has as its target hexa-His-tagged recombinant soluble human Fcγ receptor IIa, 134R (UniProt P12318).
Assay [3] has as its target hexa-His-tagged recombinant soluble human Fcγ receptor IIIa, 158F (UniProt P08637).
Sequence of UniProt P08637 (P08637 17-208): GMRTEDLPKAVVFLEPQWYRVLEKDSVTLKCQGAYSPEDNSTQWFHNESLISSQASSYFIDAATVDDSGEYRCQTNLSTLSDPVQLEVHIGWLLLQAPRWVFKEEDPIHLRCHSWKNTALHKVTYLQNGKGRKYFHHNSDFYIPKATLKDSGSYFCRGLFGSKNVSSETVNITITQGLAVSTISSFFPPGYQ

Sequence of UniProt P12314 (P12314 16-292): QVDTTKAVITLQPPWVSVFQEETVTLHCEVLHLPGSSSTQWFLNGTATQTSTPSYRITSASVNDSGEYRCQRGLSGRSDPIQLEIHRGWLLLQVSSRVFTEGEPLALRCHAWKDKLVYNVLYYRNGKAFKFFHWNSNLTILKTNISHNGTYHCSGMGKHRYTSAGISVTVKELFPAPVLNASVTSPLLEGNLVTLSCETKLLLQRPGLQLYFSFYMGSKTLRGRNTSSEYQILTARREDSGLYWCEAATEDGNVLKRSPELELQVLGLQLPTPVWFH
Sequence of UniProt P12318 (P12318 34-217 H167R): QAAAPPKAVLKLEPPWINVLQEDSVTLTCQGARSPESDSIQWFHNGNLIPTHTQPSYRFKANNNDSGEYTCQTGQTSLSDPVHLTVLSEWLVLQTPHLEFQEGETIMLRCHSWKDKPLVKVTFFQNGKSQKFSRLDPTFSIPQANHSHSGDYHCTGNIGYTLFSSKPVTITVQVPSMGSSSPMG

Regarding “fucosylated anti-CD20 chimeric IgG1 rituximab with a wild-type Fc region Y296V”, the Kd in assay [1] (parent: est. 11) was 10 ×10^-8 M; in assay [2] (parent: est. 18) it was 14 ×10^-7 M.

For the substance “fucosylated anti-CD20 chimeric IgG1 rituximab with a wild-type Fc region Y296F”, the values for the Kd in assay [3] (parent: est. 17), in assay [1] (parent: est. 11) and in assay [2] (parent: est. 18) were 21 ×10^-7 M, 11 ×10^-8 M and 9.5 ×10^-7 M, respectively.

Regarding “nonfucosylated anti-CD20 chimeric IgG1 rituximab with a wild-type Fc region Y296V”, the dissociation constant (Kd) in assay [3] (parent: est. 5.0) was 9 ×10^-7 M; in assay [1] (parent: est. 2.3), 3 ×10^-8 M; in assay [2] (parent: est. 12), 11 ×10^-7 M.

Regarding “fucosylated anti-CD20 chimeric IgG1 rituximab with a wild-type Fc region Y296E”, the values for the Kd in assay [3] (parent: est. 17), in assay [1] (parent: est. 11) and in assay [2] (parent: est. 18) were 20 ×10^-7 M, 12 ×10^-8 M and 11 ×10^-7 M, respectively.

Turning to “nonfucosylated anti-CD20 chimeric IgG1 rituximab with a wild-type Fc region Y296N”, the Kd in assay [3] (parent: est. 5.0) was 8 ×10^-7 M; in assay [1] (parent: est. 2.3), 3.2 ×10^-8 M; in assay [2] (parent: est. 12), 11 ×10^-7 M.

Regarding “fucosylated anti-CD20 chimeric IgG1 rituximab with a wild-type Fc region Y296I”, the Kd in assay [1] (parent: est. 11) was 10 ×10^-8 M; in assay [2] (parent: est. 18) it was 12 ×10^-7 M.

On to “fucosylated anti-CD20 chimeric IgG1 rituximab with a wild-type Fc region Y296N”, for which the Kd in assay [1] (parent: est. 11) was 10 ×10^-8 M; in assay [2] (parent: est. 18) it was 12 ×10^-7 M.

Regarding “fucosylated anti-CD20 chimeric IgG1 rituximab with a wild-type Fc region Y296G”, the Kd in assay [3] (parent: est. 17) is 56 ×10^-7 M; in assay [1] (parent: est. 11) it was 14 ×10^-8 M; in assay [2] (parent: est. 18) it was 13 ×10^-7 M.

For “fucosylated anti-CD20 chimeric IgG1 rituximab with a wild-type Fc region Y296Q”, the Kd was 27 ×10^-7 M in assay [3] (parent: est. 17), 9.6 ×10^-8 M in assay [1] (parent: est. 11) and 11 ×10^-7 M in assay [2] (parent: est. 18).

With “nonfucosylated anti-CD20 chimeric IgG1 rituximab with a wild-type Fc region Y296L”, the dissociation constant (Kd) in assay [3] (parent: est. 5.0) was 10 ×10^-7 M; in assay [1] (parent: est. 2.3), 2.8 ×10^-8 M; in assay [2] (parent: est. 12), 11 ×10^-7 M.

As to “nonfucosylated anti-CD20 chimeric IgG1 rituximab with a wild-type Fc region Y296C”, the figures for the Kd in assay [3] (parent: est. 5.0), in assay [1] (parent: est. 2.3) and in assay [2] (parent: est. 12) were 6.5 ×10^-7 M, 3.3 ×10^-8 M and 8 ×10^-7 M, respectively.

Take “nonfucosylated anti-CD20 chimeric IgG1 rituximab with a wild-type Fc region Y296I”: the Kd in assay [3] (parent: est. 5.0) is 9.5 ×10^-7 M; in assay [1] (parent: est. 2.3), 3.2 ×10^-8 M; in assay [2] (parent: est. 12) it was 10 ×10^-7 M.

As for “fucosylated anti-CD20 chimeric IgG1 rituximab with a wild-type Fc region Y296P”, the Kd in assay [1] (parent: est. 11) was 18 ×10^-8 M.

As to “nonfucosylated anti-CD20 chimeric IgG1 rituximab with a wild-type Fc region Y296D”, the Kd in assay [3] (parent: est. 5.0) is 6 ×10^-7 M; in assay [1] (parent: est. 2.3), 2.7 ×10^-8 M; in assay [2] (parent: est. 12), 9.5 ×10^-7 M.

Take “nonfucosylated anti-CD20 chimeric IgG1 rituximab with a wild-type Fc region Y296S”: the results for the Kd in assay [3] (parent: est. 5.0), in assay [1] (parent: est. 2.3) and in assay [2] (parent: est. 12) were 11 ×10^-7 M, 3.4 ×10^-8 M and 9.2 ×10^-7 M, respectively.

Regarding “nonfucosylated anti-CD20 chimeric IgG1 rituximab with a wild-type Fc region Y296H”, the Kd in assay [3] (parent: est. 5.0) is 6.5 ×10^-7 M; in assay [1] (parent: est. 2.3) it was 3 ×10^-8 M; in assay [2] (parent: est. 12), 7.5 ×10^-7 M.

Take “fucosylated anti-CD20 chimeric IgG1 rituximab with a wild-type Fc region Y296H”: the Kd in assay [1] (parent: est. 11) is 11 ×10^-8 M; in assay [2] (parent: est. 18), 11 ×10^-7 M.

For “nonfucosylated anti-CD20 chimeric IgG1 rituximab with a wild-type Fc region Y296R”, the values for the Kd in assay [1] (parent: est. 2.3) and in assay [2] (parent: est. 12) were 3.3 ×10^-8 M and 10 ×10^-7 M, respectively.

“nonfucosylated anti-CD20 chimeric IgG1 rituximab with a wild-type Fc region Y296Q”: the figures for the Kd in assay [3] (parent: est. 5.0), in assay [1] (parent: est. 2.3) and in assay [2] (parent: est. 12) were 10 ×10^-7 M, 3.2 ×10^-8 M and 11 ×10^-7 M, respectively.

For “fucosylated anti-CD20 chimeric IgG1 rituximab with a wild-type Fc region Y296M”, the values for the Kd in assay [1] (parent: est. 11) and in assay [2] (parent: est. 18) were 10 ×10^-8 M and 13 ×10^-7 M, respectively.

As to “fucosylated anti-CD20 chimeric IgG1 rituximab with a wild-type Fc region Y296C”, the values for the Kd in assay [3] (parent: est. 17), in assay [1] (parent: est. 11) and in assay [2] (parent: est. 18) were 17 ×10^-7 M, 9.8 ×10^-8 M and 10 ×10^-7 M, respectively.

“nonfucosylated anti-CD20 chimeric IgG1 rituximab with a wild-type Fc region Y296P”: the Kd in assay [1] (parent: est. 2.3) is 7.4 ×10^-8 M.

Turning to “fucosylated anti-CD20 chimeric IgG1 rituximab with a wild-type Fc region Y296S”, the Kd was 30 ×10^-7 M in assay [3] (parent: est. 17), 10 ×10^-8 M in assay [1] (parent: est. 11) and 13 ×10^-7 M in assay [2] (parent: est. 18).

On to “nonfucosylated anti-CD20 chimeric IgG1 rituximab with a wild-type Fc region Y296F”, for which the Kd in assay [3] (parent: est. 5.0) was 6 ×10^-7 M; in assay [1] (parent: est. 2.3), 2.6 ×10^-8 M; in assay [2] (parent: est. 12) it was 9.8 ×10^-7 M.

As for “fucosylated anti-CD20 chimeric IgG1 rituximab with a wild-type Fc region Y296T”, the figures for the Kd in assay [3] (parent: est. 17), in assay [1] (parent: est. 11) and in assay [2] (parent: est. 18) were 32 ×10^-7 M, 12 ×10^-8 M and 12 ×10^-7 M, respectively.

Take “fucosylated anti-CD20 chimeric IgG1 rituximab with a wild-type Fc region Y296D”: the figures for the Kd in assay [3] (parent: est. 17), in assay [1] (parent: est. 11) and in assay [2] (parent: est. 18) were 17 ×10^-7 M, 11 ×10^-8 M and 12 ×10^-7 M, respectively.

As to “nonfucosylated anti-CD20 chimeric IgG1 rituximab with a wild-type Fc region Y296E”, the Kd is 9 ×10^-7 M in assay [3] (parent: est. 5.0) and 2.7 ×10^-8 M in assay [1] (parent: est. 2.3).

On to “fucosylated anti-CD20 chimeric IgG1 rituximab with a wild-type Fc region Y296L”, for which the Kd in assay [1] (parent: est. 11) was 11 ×10^-8 M; in assay [2] (parent: est. 18), 9 ×10^-7 M.

As to “fucosylated anti-CD20 chimeric IgG1 rituximab with a wild-type Fc region Y296R”, the figures for the Kd in assay [3] (parent: est. 17), in assay [1] (parent: est. 11) and in assay [2] (parent: est. 18) were 41 ×10^-7 M, 10 ×10^-8 M and 12 ×10^-7 M, respectively.

Turning to “nonfucosylated anti-CD20 chimeric IgG1 rituximab with a wild-type Fc region Y296M”, the Kd is 9.5 ×10^-7 M in assay [3] (parent: est. 5.0), 3.2 ×10^-8 M in assay [1] (parent: est. 2.3) and 11 ×10^-7 M in assay [2] (parent: est. 12).

Consider “nonfucosylated anti-CD20 chimeric IgG1 rituximab with a wild-type Fc region Y296T”, for which the Kd in assay [3] (parent: est. 5.0) was 10 ×10^-7 M; in assay [1] (parent: est. 2.3), 3 ×10^-8 M; in assay [2] (parent: est. 12), 9.6 ×10^-7 M.

Usually Kd stands for the concentration at which binding is half-saturated.
